Positions count from the first letter of the chain named. Read-outs that look alike come from different tables or passages of the source. Each block holds one binder with its values, some of them ahead of it.
Tests used:
human alpha2-Antiplasmin [1] = biological target: T1, human alpha2-Antiplasmin (human, UniProt P08697 40-491); experiment: ELISA (Example 3), human alpha2-Antiplasmin coated, RFU
T1 construct: Bought (antibodies online, ABIN2544306); also called human A2AP; a2AP
T1 sequence: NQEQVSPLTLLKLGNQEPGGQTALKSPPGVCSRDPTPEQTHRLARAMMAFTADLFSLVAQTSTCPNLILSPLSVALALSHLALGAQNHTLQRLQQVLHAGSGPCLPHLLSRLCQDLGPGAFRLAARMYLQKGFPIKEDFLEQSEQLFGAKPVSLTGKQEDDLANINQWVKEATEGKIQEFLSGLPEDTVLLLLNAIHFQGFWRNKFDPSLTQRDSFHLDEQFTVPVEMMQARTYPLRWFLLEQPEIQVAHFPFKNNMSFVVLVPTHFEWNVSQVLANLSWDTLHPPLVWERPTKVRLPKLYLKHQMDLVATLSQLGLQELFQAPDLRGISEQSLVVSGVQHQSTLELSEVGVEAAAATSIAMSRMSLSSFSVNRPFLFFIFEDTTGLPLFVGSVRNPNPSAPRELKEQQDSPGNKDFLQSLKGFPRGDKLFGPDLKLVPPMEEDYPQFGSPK
Protocol: A standard ELISA format was used for analyzing the binding affinity of Fabs of this invention to human and rabbit alpha-2-Antiplasmin, respectively. Antigens were coated to black 384 well Maxisorp microtiter plates (Nunc; catalogue number 460518), diluted to a concentration of 1 μg/ml in 1× Coating Buffer (Candor Bioscience; catalogue number 121125). Plates were incubated overnight at 4° C. After overnight incubation, plates were washed 2× with 50 μl/well using PBS+0.05% Tween 20. Following this, 50 μl/well of blocking buffer (Smart Block; Candor Bioscience; catalogue number 113500) was added and the plates were incubated for 1 hour at room temperature. Afterwards, plates were washed for 3× using […] PBS+0.05% Tween 20 buffer. Fabs of this invention were added at different concentrations in a final volume of 30 μl/well. Plates were incubated for 1 hour at room temperature. Following this incubation step, plates were washed for 3× using 50 μl/well of a PBS+0.05% Tween 20 buffer. For the detection of bound Fabs and full-length antibodies, the anti-Human Lambda Light Chains (Bound and Free)—Peroxidase antibody (Sigma; catalogue number A5175) was diluted by the factor of 1:10.000 in 10% Blocking Buffer. 30 μl/well of this diluted detection antibody was added and plates are incubated for 1 hour at room temperature. Following this incubation step, plates were washed for 3× using 50 μl/well of a PBS+0.05% Tween 20 buffer. […]
(§1) For measurement, the Infinite f500 reader (Tecan) was used. Measurement mode: Fluorescence; Top reading; Ex 535 nm; Em 590 nm.
According to the method described in Example 3, these 12 antibodies were tested for ability to bind human and rabbit alpha2-Antiplasmin in a dose-dependent manner. Data generated were analyzed using the GraphPadPrism software. The binding activities of the antibodies were calculated as EC50 values. […]

human alpha2-Antiplasmin [2] = biological target: T1, human alpha2-Antiplasmin; experiment: ELISA, coated antigen, 2nd exp.
Protocol: (§2) A standard ELISA format was used for analyzing the binding affinity of Fabs of this invention to human and rabbit alpha-2-Antiplasmin, respectively. Antigens were coated to black 384 well Maxisorp microtiter plates (Nunc; catalogue number 460518), diluted to a concentration of 1 μg/ml in 1× Coating Buffer (Candor Bioscience; catalogue number 121125). Plates were incubated overnight at 4° C. After overnight incubation, plates were washed 2× with 50 μl/well using PBS+0.05% Tween 20. Following this, 50 μl/well of blocking buffer (Smart Block; Candor Bioscience; catalogue number 113500) was added and the plates were incubated for 1 hour at room temperature. Afterwards, plates were washed for 3× using […] PBS+0.05% Tween 20 buffer. Fabs of this invention were added at different concentrations in a final volume of 30 μl/well. Plates were incubated for 1 hour at room temperature. Following this incubation step, plates were washed for 3× using 50 μl/well of a PBS+0.05% Tween 20 buffer. For the detection of bound Fabs and full-length antibodies, the anti-Human Lambda Light Chains (Bound and Free)—Peroxidase antibody (Sigma; catalogue number A5175) was diluted by the factor of 1:10.000 in 10% Blocking Buffer. 30 μl/well of this diluted detection antibody was added and plates are incubated for 1 hour at room temperature. Following this incubation step, plates were washed for 3× using 50 μl/well of a PBS+0.05% Tween 20 buffer. As substrate, a mixture of 30 μl/well of 1:1000 diluted Amplex red (Invitrogen; catalogue number 12222; stock solution 10 mM in DMSO) and 1:10.000 of Hydrogen peroxide (Merck; catalogue number 107209; 30% stock solution) was added and the plates incubated for […] in the dark.
as §1
(§3) According to the methods described in Example 3 and Example 4, antibodies TPP-14323, TPP-14318, TPP-14314, TPP-14313, TPP-14308, TPP-14305, TPP-14303, TPP-14298, and TPP-14293 were tested for their ability to bind to and to block the activity of human alpha2-Antiplasmin in a dose-dependent manner. For each antibody, one dose response curve from two to three independent experiments performed in quadruplicate is shown as example in FIG. 7.1 to FIG. 7.18. (see Table 3.3)

human alpha2-Antiplasmin [3] = biological target: T1, human alpha2-Antiplasmin; experiment: cell-based or functional assay
human Plasmin = human Plasmin (human, UniProt P00747 97-580; P00747 581-810, limits assumed); experiment: cell-based or functional assay
human alpha2-Antiplasmin [4] = biological target: T1, human alpha2-Antiplasmin; experiment: ELISA, coated antigen, 1st exp.
Protocol: as §2, §1, §3

human alpha2-Antiplasmin [5] = biological target: T1, human alpha2-Antiplasmin; experiment: ELISA, coated antigen, 3rd exp.
Protocol: as §2, §1, §3

human alpha2-Antiplasmin [6] = biological target: T1, human alpha2-Antiplasmin; experiment: cell-based or functional assay; remark: listed apart in the source
human alpha2-Antiplasmin [7] = biological target: T1, human alpha2-Antiplasmin; experiment: SPR Biacore T200, antibody captured on protein G chip, A2AP as analyte, 25 C
Protocol: (§4) Binding assays were performed on a Biacore T200 instrument at 25° C. with a protein G sensor chip and assay buffer HBS-EP+. Antibodies were captured to ˜150 RU and analytes were used at concentrations between 1.56 and 200 nM for full kinetics. As interaction partner, alpha2-Antiplasmin from human, cynomolgus and rabbit was used. Regeneration was performed with glycine-HCl pH 1.5. Kinetic parameters were derived by fitting experimental sensorgrams to a 1:1 Langmuir binding model.

[8] = biological target: T2, rabbit alpha2-Antiplasmin (rabbit (Oryctolagus cuniculus)); experiment: as above
T2 construct: Made in house in HEK293 cells, purified by Ni-IMAC and SEC (a His tag is implied but not described); also called rabbit A2AP; Oryctolagus cuniculus A2AP
T2 chain: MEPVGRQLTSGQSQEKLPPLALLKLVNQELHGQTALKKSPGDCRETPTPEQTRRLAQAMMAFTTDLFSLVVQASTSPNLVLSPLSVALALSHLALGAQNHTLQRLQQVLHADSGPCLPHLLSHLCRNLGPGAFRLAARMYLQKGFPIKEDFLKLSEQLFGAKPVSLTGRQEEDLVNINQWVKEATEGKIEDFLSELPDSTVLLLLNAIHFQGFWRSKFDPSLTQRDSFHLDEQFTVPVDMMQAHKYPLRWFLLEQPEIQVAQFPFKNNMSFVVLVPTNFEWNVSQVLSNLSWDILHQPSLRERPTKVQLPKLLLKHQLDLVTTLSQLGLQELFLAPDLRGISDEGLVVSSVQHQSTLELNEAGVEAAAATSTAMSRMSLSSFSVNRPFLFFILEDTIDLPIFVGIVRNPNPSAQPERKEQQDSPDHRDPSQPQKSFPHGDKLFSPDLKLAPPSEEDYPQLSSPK
Protocol: as §4

[9] = biological target: T3, cynomolgus alpha2-Antiplasmin (cynomolgus (Macaca fascicularis), UniProt P08697 28-491 (human entry)); experiment: as above
T3 construct: Made in house in the same way as the rabbit protein; also called cynomolgus A2AP; Macaca fascicularis A2AP
T3 chain: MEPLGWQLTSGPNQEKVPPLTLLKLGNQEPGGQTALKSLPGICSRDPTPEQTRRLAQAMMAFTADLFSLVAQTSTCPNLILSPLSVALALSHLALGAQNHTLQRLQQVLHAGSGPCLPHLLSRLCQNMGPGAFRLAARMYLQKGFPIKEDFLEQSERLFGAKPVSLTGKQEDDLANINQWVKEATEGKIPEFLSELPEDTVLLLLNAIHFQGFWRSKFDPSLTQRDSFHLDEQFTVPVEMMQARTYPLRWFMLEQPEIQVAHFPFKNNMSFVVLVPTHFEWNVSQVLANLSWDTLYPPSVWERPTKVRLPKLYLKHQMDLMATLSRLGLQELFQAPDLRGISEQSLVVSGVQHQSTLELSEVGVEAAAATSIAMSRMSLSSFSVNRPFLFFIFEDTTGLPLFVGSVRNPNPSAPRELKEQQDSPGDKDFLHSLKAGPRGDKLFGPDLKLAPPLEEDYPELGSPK
Protocol: as §4

human alpha2-Antiplasmin [10] = biological target: T1, human alpha2-Antiplasmin; experiment: cell-based or functional assay; remark: listed apart in the source
human alpha2-Antiplasmin [11] = biological target: T1, human alpha2-Antiplasmin; experiment: ELISA, coated antigen, quantified unpurified antibody, 2nd exp.
human alpha2-Antiplasmin [12] = biological target: T1, human alpha2-Antiplasmin; experiment: ELISA, coated antigen, quantified unpurified antibody, 3rd exp.
Protocol: as §2, §1

human alpha2-Antiplasmin [13] = biological target: T1, human alpha2-Antiplasmin; experiment: cell-based or functional assay; remark: listed apart in the source
human alpha2-Antiplasmin [14] = biological target: T1, human alpha2-Antiplasmin; experiment: cell-based or functional assay; remark: listed apart in the source
human alpha2-Antiplasmin [15] = biological target: T1, human alpha2-Antiplasmin; experiment: ELISA, coated antigen, quantified unpurified antibody, 1st exp.

human Plasmin, sequence (P00747 97-580 limits assumed, chain 1 of 2): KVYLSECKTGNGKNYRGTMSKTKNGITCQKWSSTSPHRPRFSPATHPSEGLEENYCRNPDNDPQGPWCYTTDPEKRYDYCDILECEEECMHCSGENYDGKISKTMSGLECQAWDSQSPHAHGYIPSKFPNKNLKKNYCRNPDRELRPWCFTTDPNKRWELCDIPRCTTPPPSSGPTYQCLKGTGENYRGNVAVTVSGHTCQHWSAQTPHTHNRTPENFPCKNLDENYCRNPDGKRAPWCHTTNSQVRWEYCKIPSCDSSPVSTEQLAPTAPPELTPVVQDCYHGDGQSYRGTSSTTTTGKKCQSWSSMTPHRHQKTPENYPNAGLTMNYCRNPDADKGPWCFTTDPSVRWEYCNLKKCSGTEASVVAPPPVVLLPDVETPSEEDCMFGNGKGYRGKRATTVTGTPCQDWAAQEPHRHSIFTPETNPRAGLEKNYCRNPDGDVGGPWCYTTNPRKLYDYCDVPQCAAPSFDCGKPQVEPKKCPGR
human Plasmin, sequence (P00747 581-810 limits assumed, chain 2 of 2): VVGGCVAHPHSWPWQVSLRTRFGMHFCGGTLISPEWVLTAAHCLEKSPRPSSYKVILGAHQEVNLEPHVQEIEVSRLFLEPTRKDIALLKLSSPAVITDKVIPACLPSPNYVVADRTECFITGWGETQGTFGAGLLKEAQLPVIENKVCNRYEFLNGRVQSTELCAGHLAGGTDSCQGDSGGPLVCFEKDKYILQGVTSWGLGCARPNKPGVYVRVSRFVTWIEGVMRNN

EC50 (read off the curve) (human alpha2-Antiplasmin [1]): ~8 nM
EC50 (human alpha2-Antiplasmin [2]): 82 nM
function blocking activity [IC50 M], 1st exp. (human alpha2-Antiplasmin [3]): 68 nM
function blocking activity [IC50 M], 2nd exp. (human alpha2-Antiplasmin [3]): 73 nM
function blocking activity [IC50 M], 3rd exp. (human alpha2-Antiplasmin [3]): 69 nM
IC50 [M], inhibition of plasmin proteolytic activity (human Plasmin): > 2e-06 M
EC50 (human alpha2-Antiplasmin [4]): 8.1 nM
EC50 (human alpha2-Antiplasmin [5]): 84 nM
B1: TPP-14314 hIgG1 (antibody, V domains shown)
VH: EVQLLESGGGLVQPGGSLRLSCAASGFTFDDYAMSWVRQAPGKGLEWVSAIGTGGGTYYADSVKGRFTISRDNSKNTLYLQMNSLRAEDTAVYYCAREYYDSSGYYHLVYWGQGTLVTVSS
VL: QSVLTQPPSASGTPGQRVTISCTGSSSNIGATYDVHWYQQLPGTAPKLLIYSNNQRPSGVPDRFSGSKSGTSASLAISGLRSEDEADYYCAAWDVSLSGWVFGGGTKLTVL
notes: Human IgG1 lambda

EC50 (read off the curve); function blocking assay (Example 4), RFU of plasmin substrate cleavage; comparator curve [same curve in 8.4, D00008 8.6, 8.8, D00009 8.10, 8.12] (human alpha2-Antiplasmin [6]): ~2 nM
EC50 (human alpha2-Antiplasmin [2]): 61 nM
function blocking activity [IC50 M], 1st exp. (human alpha2-Antiplasmin [3]): 2.4 nM
function blocking activity [IC50 M], 2nd exp. (human alpha2-Antiplasmin [3]): 30 nM
function blocking activity [IC50 M], 3rd exp. (human alpha2-Antiplasmin [3]): 24 nM
IC50 [M], inhibition of plasmin proteolytic activity (human Plasmin): > 5e-06 M
Kd (human alpha2-Antiplasmin [7]): 3.9 nM
Kd [8]: 7.8 nM
Kd [9]: 3.1 nM
EC50 (human alpha2-Antiplasmin [4]): 5.7 nM
EC50 (human alpha2-Antiplasmin [5]): 60 nM
EC50 (read off the curve); function blocking assay (Example 4), RFU of plasmin substrate cleavage (human alpha2-Antiplasmin [10]): ~2 nM
B2: TPP-14308 hIgG1 (antibody, V domains shown)
VH: B1 VH with Y99G, V109D
VL: QSVLTQPPSASGTPGQRVTISCTGSSSNIGATYDVHWYQQLPGTAPKLLIYSNNQRPSGVPDRFSGSKSGTSASLAISGLRSEDEADYYCAAWDWSLSGWVFGGGTKLTVLG
notes: starting point of the germlining

EC50 (human alpha2-Antiplasmin [11]): 0.16 nM
EC50 (human alpha2-Antiplasmin [12]): 0.22 nM
IC50, A2AP function blocking assay (Example 10) (human alpha2-Antiplasmin [13]): 0.33 nM
function blocking activity [IC50 M], 1st exp. (human alpha2-Antiplasmin [14]): 0.33 nM
function blocking activity [IC50 M], 2nd exp. (human alpha2-Antiplasmin [14]): 0.44 nM
IC50 [M], inhibition of plasmin proteolytic activity (human Plasmin): > 1e-05 M
Kd (human alpha2-Antiplasmin [7]): 18 nM
Kd [8]: 17 nM
Kd [9]: 13 nM
EC50 (human alpha2-Antiplasmin [15]): 0.11 nM
B3: TPP-17051 hIgG1 (antibody, V domains shown)
VH: B1 VH with D31S, G56S, Y99G, V109D
VL: B2 VL
notes: Germline variant of TPP-14308

— US20240010750A1 (Bayer, published 2024)
